Data from article PMC2175354.

Assays:
Assay in all cases: EMSA
MyoD full-length = MyoD full-length (Mus musculus, UniProt P10085 1-318)
MyoD ΔR1R2R3 = MyoD ΔR1R2R3 (Mus musculus, UniProt P10085 1-318, del102-104;del110-112;del119-121)
MyoD bHLH domain = MyoD bHLH domain (UniProt P10085 102-162)
MyoD R111C = MyoD R111C (Mus musculus, UniProt P10085 1-318, R111C)
MyoD ΔR2R3 = MyoD ΔR2R3 (Mus musculus, UniProt P10085 1-318, del110-112;del119-121)
MyoD ΔR1R3 = MyoD ΔR1R3 (Mus musculus, UniProt P10085 1-318, del102-104;del119-121)
[1] = target: MyoD Δ1-93 (activation and C/H regions deleted) (Mus musculus, UniProt P10085 94-318, del1-93)
MyoD Δ102-114 = MyoD Δ102-114 (UniProt P10085 1-318, del102-114)
MyoD ΔR3 = MyoD ΔR3 (Mus musculus, UniProt P10085 1-318, del119-121)
[2] = target: MyoD Δ3-56 (activation region deleted) (Mus musculus, UniProt P10085 1-318, del3-56)
[3] = target: MyoD Δ1-121 (activation, C/H and basic regions deleted) (Mus musculus, UniProt P10085 122-318, del1-121)

Measured: binding result

B1: E-box DNA (dsDNA)
DNA 1: TCGATCCCCCAACACCTGCTGCCTGA
DNA 2: TCAGGCAGCAGGTGTTGGGGGATCGA
binds: MyoD full-length | MyoD bHLH domain | [1] | [2]
no binding: all other assays above
